Measured values reported in IntAct's records for PubMed 11454208.

B1: Transcriptional repressor OPI1 (Saccharomyces cerevisiae), P21957 (parent)
chain: MSENQRLGLSEEEVEAAEVLGVLKQSCRQKSQPSEDVSQADKMPASESSTTPLNILDRVSNKIISNVVTFYDEINTNKRPLKSIGRLLDDDDDEHDDYDYNDDEFFTNKRQKLSRAIAKGKDNLKEYKLNMSIESKKRLVTCLHLLKLANKQLSDKISCLQDLVEKEQVHPLHKQDGNARTTTGAGEDETSSDEDDDDEEFFDASEQVNASEQSIVVKMEVVGTVKKVYSLISKFTANSLPEPARSQVRESLLNLPTNWFDSVHSTSLPHHASFHYANCEEQKVEQQQQQQQQQQQQQLLQQQLLQQQQQKRNKDGDDSASPSSSVTANGKVLILAKESLEMVRNVMGVVDSTLGKAEEWVKQKQEVKEMIRERFLQQQQQYRQQQQKDGNYVKPSQDNVDSKD
partner: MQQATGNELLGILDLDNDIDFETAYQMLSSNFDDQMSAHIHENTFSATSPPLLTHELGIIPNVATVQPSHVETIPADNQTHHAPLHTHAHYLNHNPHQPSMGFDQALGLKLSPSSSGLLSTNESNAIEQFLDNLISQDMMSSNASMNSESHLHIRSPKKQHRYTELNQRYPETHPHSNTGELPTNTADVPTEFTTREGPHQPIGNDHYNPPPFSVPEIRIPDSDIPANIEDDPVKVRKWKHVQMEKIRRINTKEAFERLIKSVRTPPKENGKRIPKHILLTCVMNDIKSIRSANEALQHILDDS

Variants of: B1
Details: with ino2_yeast INO2, P26798

| Variant | effect of a mutation on the interaction |
| --- | --- |
| MSENQRLGLSEEEVEAAEVLGVLKQSCRQKSQPSEDVSQADKMPASESSTTPLNILDRVSNKIISNVVTFYDEINTNKRPLKSIGRLLDDDDDEHDDYDYNDDEFFTNKRQKLSRAIAKGKDNLKEYKLNMSIESKKRLVTCLHLLKLANKQLSDKISCAQDLVEKEQVHPLHKQDGNARTTTGAGEDETSSDEDDDDEEFFDASEQVNASEQSIVVKMEVVGTVKKVYSLISKFTANSLPEPARSQVRESLLNLPTNWFDSVHSTSLPHHASFHYANCEEQKVEQQQQQQQQQQQQQLLQQQLLQQQQQKRNKDGDDSASPSSSVTANGKVLILAKESLEMVRNVMGVVDSTLGKAEEWVKQKQEVKEMIRERFLQQQQQYRQQQQKDGNYVKPSQDNVDSKD [L160A] | decreasing interaction |
